The target of assay [1] is Thy-1 on the surface of primary rat cortical neurons (rat (endogenous in primary cortical neurons)) (UniProt P01830).
The target of assay [2] is Thy-1 on CAD cells (mouse (endogenous in CAD cells)) (UniProt P01831).
The target of assay [3] is Thy-1 on the surface of primary rat cortical neurons (rat (endogenous in primary cortical neurons)) (UniProt P01830). The source holds these as a separate data set.
Assay [4] has the same target. The source holds these as a separate data set.
In assay [5] the target is αVβ3 integrin on the cell surface of DITNC1 astrocytes (UniProt Q8R2H2).
Chain of UniProt Q8R2H2 (Q8R2H2 whole entry, looked up): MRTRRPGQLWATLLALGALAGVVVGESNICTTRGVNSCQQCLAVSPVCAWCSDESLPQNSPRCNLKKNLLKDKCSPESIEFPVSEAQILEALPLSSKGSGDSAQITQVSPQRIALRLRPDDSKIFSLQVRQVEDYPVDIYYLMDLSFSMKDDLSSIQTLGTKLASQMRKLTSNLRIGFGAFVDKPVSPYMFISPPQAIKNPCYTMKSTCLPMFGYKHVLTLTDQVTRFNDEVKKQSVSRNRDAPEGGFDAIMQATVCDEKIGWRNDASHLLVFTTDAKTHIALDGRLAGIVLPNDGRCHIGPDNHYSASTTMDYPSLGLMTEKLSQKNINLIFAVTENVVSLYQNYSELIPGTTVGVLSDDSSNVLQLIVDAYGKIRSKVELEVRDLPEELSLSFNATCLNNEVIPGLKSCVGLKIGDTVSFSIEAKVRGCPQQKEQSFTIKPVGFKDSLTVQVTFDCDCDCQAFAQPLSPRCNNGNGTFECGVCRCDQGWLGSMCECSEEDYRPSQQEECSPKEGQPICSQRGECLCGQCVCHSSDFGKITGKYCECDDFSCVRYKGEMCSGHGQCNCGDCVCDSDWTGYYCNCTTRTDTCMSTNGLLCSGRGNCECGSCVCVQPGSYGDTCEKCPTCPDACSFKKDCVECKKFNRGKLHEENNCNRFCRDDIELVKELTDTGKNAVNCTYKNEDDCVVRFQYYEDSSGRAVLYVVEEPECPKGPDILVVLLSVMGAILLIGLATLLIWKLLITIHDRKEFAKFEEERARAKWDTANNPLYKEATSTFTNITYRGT

The values that follow come from article PMC3316703.

Chain of UniProt P01830 (P01830 20-130): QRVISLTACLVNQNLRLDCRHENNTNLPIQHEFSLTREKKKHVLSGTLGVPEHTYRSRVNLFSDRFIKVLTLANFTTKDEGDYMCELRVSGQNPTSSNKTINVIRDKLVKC

As to “αVβ3-Fc fusion protein (from UniProt P06756 31-1048; P05106 27-718)”, in assay [1], the percentage of Thy-1 positive axonal terminals collapsed in mature cortical neurons (12–15 days in vitro) treated with αVβ3-Fc-containing supernatants amounted to 55%. Also, the length of processes of CAD cells on αVβ3-Fc-coated plates in comparison to controls in assay [2] amounted to 40 % decrease. The molecule further showed a percentage of axonal terminals collapsed in mature cortical neurons treated with αVβ3-Fc cross-linked with Protein A in assay [3] of 80%. The length of dendrites of cortical neurons (4–5 days in culture) treated with αVβ3-Fc-containing supernatant for 72 hours, compared with non-treated neurons; prevented by PI-PLC pre-treatment in assay [4] was 50 % decrease.

B1: Thy-1 on CAD cells (natural protein)
chain: QKVTSLTACLVNQNLRLDCRHENNTKDNSIQHEFSLTREKRKHVLSGTLGIPEHTYRSRVTLSNQPYIKVLTLANFTTKDEGDYFCELQVSGANPMSSNKSISVYRDKLVKC
modifications: GPI anchor
B1 registered a percentage of differentiated CAD cells (processes ≥15 µm) seeded over a monolayer of DITNC1 astrocytes, against ∼80% on plastic in assay [5] of 35%.
